Literature values as cited in paper PMC6705211.
Where two headings read alike, the source gives them in different places.

Key:
[1] = target: H3K9me3 (UniProt P68431)
[2] = target: H3K9me3 (UniProt P68431); remark: listed apart in the source
[3] = target: H3K9me3 (UniProt P68431); remark: listed apart in the source
[4] = target: H3K9me3 (UniProt P68431); remark: listed apart in the source

HP1γ, sequence (Q13185 2-183): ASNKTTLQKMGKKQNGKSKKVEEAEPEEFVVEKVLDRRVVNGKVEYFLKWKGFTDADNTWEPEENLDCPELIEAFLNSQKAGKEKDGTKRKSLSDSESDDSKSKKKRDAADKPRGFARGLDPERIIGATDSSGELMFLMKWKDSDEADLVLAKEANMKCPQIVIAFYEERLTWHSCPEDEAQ
HP1a chromodomain, sequence (P05205 24-82): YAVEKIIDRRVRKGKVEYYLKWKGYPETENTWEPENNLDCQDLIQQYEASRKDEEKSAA
HP1β, sequence (P83916 whole entry): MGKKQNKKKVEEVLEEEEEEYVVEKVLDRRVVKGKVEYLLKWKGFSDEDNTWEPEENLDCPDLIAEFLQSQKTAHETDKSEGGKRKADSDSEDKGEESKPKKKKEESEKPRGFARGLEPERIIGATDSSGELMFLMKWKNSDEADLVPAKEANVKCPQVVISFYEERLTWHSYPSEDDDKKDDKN
HP1α chromodomain, sequence (P45973 20-78): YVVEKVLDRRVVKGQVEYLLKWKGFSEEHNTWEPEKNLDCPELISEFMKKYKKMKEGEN

Question: Which Kd [1] does the source give for HP1a chromodomain (from UniProt P05205) here?
Answer: The Kd was 4 µM.

Question: With HP1α chromodomain (from UniProt P45973) as the substance, how does the Kd [2] read?
Answer: Its Kd is 13 µM.

Question: For HP1β (from UniProt P83916), which Kd [3] is on record?
Answer: The Kd was 3 µM.

Question: Which Kd [4] does the source give for HP1γ (from UniProt Q13185) here?
Answer: Its Kd is 7 µM.
